Molecular target: T1, human MPC1L/MPC2 heterodimer (Homo sapiens, UniProt P0DKB6;O95563)
T1 construct: MPC1L, human, wild-type cDNA, UniProt P0DKB6; MPC2, human, wild-type cDNA, UniProt O95563; Heterodimer formed beforehand (co-expressed and co-purified) and then mixed with the nanobody or the Pro-macrobody; also called hMPC1L/MPC2; hMPC1L/2 heterodimer; source: S. cerevisiae W303-1B, purified from mitochondria (LMNG, Nickel Sepharose, on-column TEV digestion); not shown: His tag, C-terminal, …
Assay: pull-down; 75 μg hMPC1L/MPC2 incubated at a stoichiometric ratio with each nanobody for 1 hour at 4°C, then Ni-NTA Superflow resin 1 hour at 4°C; washed with buffer B, eluted with 250 mM imidazole; fractions on SDS-PAGE
Conditions: both partners purified

T1 sequence (P0DKB6 whole entry, chain 1 of 2): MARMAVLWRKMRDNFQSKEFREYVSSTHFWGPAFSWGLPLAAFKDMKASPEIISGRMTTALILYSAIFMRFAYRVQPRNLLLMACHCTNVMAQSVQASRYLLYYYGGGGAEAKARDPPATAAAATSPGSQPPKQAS
T1 sequence (O95563 whole entry, chain 2 of 2): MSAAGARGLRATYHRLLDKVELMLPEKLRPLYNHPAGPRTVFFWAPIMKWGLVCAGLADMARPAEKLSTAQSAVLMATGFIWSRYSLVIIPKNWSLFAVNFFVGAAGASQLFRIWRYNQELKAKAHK

B1: nanobody CA19425 (VHH)
VHH: QVQLVESGGGLVQAGGSLRLSCAASGRTFSAYGISTYTMGWFRQAPGKEREFVAAIGRDSGFTYYEDSVKGRFTINADNAENTVYLQMNSLKPEDTAVYYCAASSYYGRPNVDLMAYWGKGTQVTVPP
notes: as the nanobody part of m4, held in the PMb chain of the deposited entries (modelled residues 4 to 131); One of six nanobodies (four families); also called MPC2-specific nanobody; source: from a phage display library (pMESy4) of a llama immunised with hMPC1L/MPC2 proteoliposomes
B1: binds.
